The values below come from paper PMC9898148 (Structure (London, England : 1993), 2022).

Test [1] has as its target T1, hNAA35^28-725 (large auxiliary subunit of human NatC, N-terminally truncated) (human, UniProt Q5VZE5 28-725).
T1 sequence (looked up): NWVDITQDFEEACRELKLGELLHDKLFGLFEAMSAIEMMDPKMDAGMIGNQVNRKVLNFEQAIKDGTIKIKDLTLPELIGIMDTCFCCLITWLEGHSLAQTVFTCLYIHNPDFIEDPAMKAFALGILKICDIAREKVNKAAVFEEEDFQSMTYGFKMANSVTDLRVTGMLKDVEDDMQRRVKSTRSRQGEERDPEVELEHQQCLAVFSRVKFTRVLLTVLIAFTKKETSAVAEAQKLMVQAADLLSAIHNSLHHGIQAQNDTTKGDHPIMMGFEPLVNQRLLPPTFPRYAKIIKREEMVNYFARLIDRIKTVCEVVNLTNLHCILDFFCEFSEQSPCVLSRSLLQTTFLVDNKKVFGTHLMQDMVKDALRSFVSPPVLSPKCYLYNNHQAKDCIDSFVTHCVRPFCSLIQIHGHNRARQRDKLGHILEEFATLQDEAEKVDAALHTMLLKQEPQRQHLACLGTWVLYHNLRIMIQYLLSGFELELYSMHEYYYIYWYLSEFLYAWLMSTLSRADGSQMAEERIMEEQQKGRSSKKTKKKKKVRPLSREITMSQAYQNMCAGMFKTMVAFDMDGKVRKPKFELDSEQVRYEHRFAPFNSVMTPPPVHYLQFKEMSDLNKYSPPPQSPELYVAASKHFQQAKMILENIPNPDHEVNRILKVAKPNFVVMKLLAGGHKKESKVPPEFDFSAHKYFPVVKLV
The experiment in a line: cryo-EM structure.

Test [2] has as its target T2, hNAA30^211-362 (catalytic subunit of human NatC, N-terminally truncated) (human, UniProt Q147X3 211-362).
T2 sequence (looked up): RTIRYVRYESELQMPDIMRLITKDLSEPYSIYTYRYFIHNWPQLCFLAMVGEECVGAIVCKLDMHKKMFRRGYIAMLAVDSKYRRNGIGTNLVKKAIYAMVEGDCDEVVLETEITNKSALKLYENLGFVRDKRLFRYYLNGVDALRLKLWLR
Nature of the test: cryo-EM structure.

B1: hNAA38^1-125 (small auxiliary subunit of human NatC, full length) (natural protein, UniProt Q9BRA0 1-125, looked up)
chain: MAGAGPTMLLREENGCCSRRQSSSSAGDSDGEREDSAAERARQQLEALLNKTMRIRMTDGRTLVGCFLCTDRDCNVILGSAQEFLKPSDSFSAGEPRVLGLAMVPGHHIVSIEVQRESLTGPPYL
As to B1, the binding result in test [1] is “binds”. Turning to {CoA‑Ac}-MLGPE-NH2 [CoA-Ac-MLGPE-NH2 bisubstrate inhibitor], the binding result in test [2] is on record as “binds”.
